Source: patent US20140314744A1

Target: Recombinant human Fc-tagged MCAM IgG1-2A (human) (UniProt P43121)
Assay: SPR (Biacore T200), steady state, MCAM IgG1-2A captured by anti-Fc IgG, laminin in solution

Chain of Recombinant human Fc-tagged MCAM IgG1-2A (human) (P43121 19-242): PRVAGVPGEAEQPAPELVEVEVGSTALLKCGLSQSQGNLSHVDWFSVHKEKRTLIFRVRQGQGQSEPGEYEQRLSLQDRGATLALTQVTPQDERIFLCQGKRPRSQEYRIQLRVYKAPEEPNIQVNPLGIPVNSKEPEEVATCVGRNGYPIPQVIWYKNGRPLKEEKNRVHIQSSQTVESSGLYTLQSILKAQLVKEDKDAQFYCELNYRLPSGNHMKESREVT

“Recombinant human laminin 411 (Biolamina) (from UniProt Q16363 25-1823; P07942 22-1786; P11047 34-1609) (ligand)” gave a Kd of 66 nM.
